Sequences and labels used below:
B1: TPR 5TU (parent)
chain: GGAUCUUCUCGAUCUAACAAAAAAGACAAAUCUGCCACAAAGCUUGAGAGCAUCUUCGGAUGCAGAGGCGGCAGCCUUCGGUGGCGCGAUAGCGCCAACGUUCUCAACUAUGACACGCAAAACGCGUGCUCCGUUGAAUGGAGUUUAUCAUG

Fewer inactive variants are shown than the library holds.

The variants in this data set derive from B1. Put plainly: polymerase ribozyme fitness, log enrichment relative to wild type (log ratio); higher = more active; in vitro selection for triplet polymerase activity. Summed up:
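Input and output libraries were sequenced on Illumina after a single in vitro selection round, run in triplicate on PCR-built, transcribed mutant libraries of each subunit of a heterodimeric triplet polymerase ribozyme. Selection annealed libraries to a biotinylated primer, the partner subunit and triplets, incubated them frozen at −7 °C, then gel-excised extended constructs for streptavidin-bead capture and RT-PCR. Genotypes with ≥10 input reads and ≥1 read per output were kept. Fitness is the logarithm, taken in base 2, of genotype enrichment divided by wild-type enrichment, using inverse-variance-weighted replicate averages.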
Turning to A49G G117U, the “polymerase ribozyme fitness (log ratio)” value is -0.367.

With C51U C96G C132A, the “polymerase ribozyme fitness (log ratio)” value is -3.26.

For A3G A24C U53A U61A C85G, the “polymerase ribozyme fitness (log ratio)” value was no more than -4.2.

Consider G80U C114U, for which the “polymerase ribozyme fitness (log ratio)” value is -2.31.

Turning to C57A U61A C95U A97U A115U U144C, the “polymerase ribozyme fitness (log ratio)” value is no more than -4.2.

Turning to C96U C123U G136U, the “polymerase ribozyme fitness (log ratio)” value was -2.2.

For A16C A19U C85U G117U A150U, the “polymerase ribozyme fitness (log ratio)” value came out at 0.0374.

Take A20U A49U C93G C103U: the “polymerase ribozyme fitness (log ratio)” value was no more than -4.2.

Regarding U56A G74A A138G, the “polymerase ribozyme fitness (log ratio)” value was no more than -4.2.

C96G G141A: the “polymerase ribozyme fitness (log ratio)” value is -0.288.

U53A G84U: the “polymerase ribozyme fitness (log ratio)” value is -1.26.

As for C14A A16G U45A U55G U61A G65U G94C C96U U101G, the “polymerase ribozyme fitness (log ratio)” value is no more than -4.2.

For C85G C125A U144A, the “polymerase ribozyme fitness (log ratio)” value was -3.57.

As to A47C G50A U53G C69G U77A C85A C103G A113G G136C, the “polymerase ribozyme fitness (log ratio)” value was no more than -4.2.

As for A41U C85U C99A C105A C118G A119C, the “polymerase ribozyme fitness (log ratio)” value was no more than -4.2.

For the variant A37G A47G U101C, the “polymerase ribozyme fitness (log ratio)” value is -2.53.

For the variant G34A C85U A147C U148G G152U, the “polymerase ribozyme fitness (log ratio)” value is no more than -4.2.

Take C57G U82A G83U G141U: the “polymerase ribozyme fitness (log ratio)” value was -1.49.

Regarding A52G G74C C87A A113U C125A G140U, the “polymerase ribozyme fitness (log ratio)” value was no more than -4.2.

As to G68A C87A A107G G117U C132G, the “polymerase ribozyme fitness (log ratio)” value is no more than -4.2.

A37G G48C A52C U56A C79A U104A U109A C116G C149G G152A: the “polymerase ribozyme fitness (log ratio)” value is no more than -4.2.

In the case of C125G U127A, the “polymerase ribozyme fitness (log ratio)” value is -3.68.

Take A16G A17C A21U A29G U55A C57G A91C C103U U145A: the “polymerase ribozyme fitness (log ratio)” value is no more than -4.2.

Regarding A52G U55A G59C G86U A142C G143C, the “polymerase ribozyme fitness (log ratio)” value was no more than -4.2.

In the case of G42C U53A C99U, the “polymerase ribozyme fitness (log ratio)” value is no more than -4.2.

As to C5A C14G A22G A49C G50U G58C, the “polymerase ribozyme fitness (log ratio)” value is -4.18.

On to G124C, for which the “polymerase ribozyme fitness (log ratio)” value is -0.922.

For the variant A17U C96A, the “polymerase ribozyme fitness (log ratio)” value is -0.735.

With G88C G141C, the “polymerase ribozyme fitness (log ratio)” value was -3.84.

With C10A A29C U44G G58A A60G A97U G141C, the “polymerase ribozyme fitness (log ratio)” value was no more than -4.2.

With C14G C85U C103U, the “polymerase ribozyme fitness (log ratio)” value is -3.1.

Turning to U9G A20U U31C C38G G86A U127G, the “polymerase ribozyme fitness (log ratio)” value is no more than -4.2.

For A24G G71C C79G C85A G124U U130G U148C, the “polymerase ribozyme fitness (log ratio)” value is no more than -4.2.

For A41U G65U G141C, the “polymerase ribozyme fitness (log ratio)” value is no more than -4.2.

Turning to G92A A138C U148C, the “polymerase ribozyme fitness (log ratio)” value is no more than -4.2.

In the case of G70A U78C G88U U104G A113G G128U U135A, the “polymerase ribozyme fitness (log ratio)” value is no more than -4.2.

Turning to U33G G50U U90G C96G, the “polymerase ribozyme fitness (log ratio)” value was -3.98.

For A47C U55A C57A G84U C96U C99U G136A G143C, the “polymerase ribozyme fitness (log ratio)” value is no more than -4.2.

With C27U C51U G83A, the “polymerase ribozyme fitness (log ratio)” value was -2.56.

Consider U4G C75G A91U G92A U101G C125U, for which the “polymerase ribozyme fitness (log ratio)” value is no more than -4.2.

Turning to G71A C96G, the “polymerase ribozyme fitness (log ratio)” value is -3.31.

For C5G A49G U61A C85G, the “polymerase ribozyme fitness (log ratio)” value is no more than -4.2.

Take A49C G84U A107G U111G A120G: the “polymerase ribozyme fitness (log ratio)” value is no more than -4.2.

Take A41U G50A A52C C93U G100A A119C: the “polymerase ribozyme fitness (log ratio)” value was no more than -4.2.

For the variant G74A A122G, the “polymerase ribozyme fitness (log ratio)” value was -3.39.

As for C35A G50C G86U C118A, the “polymerase ribozyme fitness (log ratio)” value was no more than -4.2.

C27A A60U A91U A106U: the “polymerase ribozyme fitness (log ratio)” value is no more than -4.2.

In the case of C18G G50A C96G A121C, the “polymerase ribozyme fitness (log ratio)” value is -2.18.

Turning to U6C A22U A26U G84A U144A, the “polymerase ribozyme fitness (log ratio)” value is -4.15.

Regarding C32U G46A C51G U53C G67C G86U U101G A138U, the “polymerase ribozyme fitness (log ratio)” value was no more than -4.2.

On to G94C G100U, for which the “polymerase ribozyme fitness (log ratio)” value is -3.69.

In the case of C75A A89U G143C, the “polymerase ribozyme fitness (log ratio)” value is no more than -4.2.

On to G34U G42A U82C U135C, for which the “polymerase ribozyme fitness (log ratio)” value was no more than -4.2.

As for U55C G70A, the “polymerase ribozyme fitness (log ratio)” value is -3.5.

U144G: the “polymerase ribozyme fitness (log ratio)” value was found to be 0.948.

G50U U78A: the “polymerase ribozyme fitness (log ratio)” value is no more than -4.2.

In the case of U9G U33A C36A C63U C79G C118A U135A, the “polymerase ribozyme fitness (log ratio)” value is no more than -4.2.

As for A23G A40C G141C, the “polymerase ribozyme fitness (log ratio)” value is -3.82.

For the variant U6A G50C A52C, the “polymerase ribozyme fitness (log ratio)” value was no more than -4.2.

Take C95U C96U C118U C125A C129G: the “polymerase ribozyme fitness (log ratio)” value was no more than -4.2.

As to G62U G136A, the “polymerase ribozyme fitness (log ratio)” value came to 0.626.

Turning to U4G A24C G84U G86U C108U A122G U151C, the “polymerase ribozyme fitness (log ratio)” value is no more than -4.2.

As to C36U G62A A91C C96G A113U, the “polymerase ribozyme fitness (log ratio)” value is no more than -4.2.

Take G59A A64U C85A G92A U144C: the “polymerase ribozyme fitness (log ratio)” value was no more than -4.2.

For C8A A12G A41C A47G U53A G143U U151C, the “polymerase ribozyme fitness (log ratio)” value is no more than -4.2.

On to C36U C54A G68A G71A C95G A115U A122G, for which the “polymerase ribozyme fitness (log ratio)” value is no more than -4.2.

For the variant A60U G67A A91G A137U, the “polymerase ribozyme fitness (log ratio)” value is no more than -4.2.

Turning to C54U C87U C105A, the “polymerase ribozyme fitness (log ratio)” value was -2.09.

Turning to C87G A97U G117C, the “polymerase ribozyme fitness (log ratio)” value was no more than -4.2.

With C54U U148C, the “polymerase ribozyme fitness (log ratio)” value is -1.84.

G70C G94C: the “polymerase ribozyme fitness (log ratio)” value was -3.44.

For the variant C79U G140U, the “polymerase ribozyme fitness (log ratio)” value was -3.68.

Regarding C85U C87G G140C, the “polymerase ribozyme fitness (log ratio)” value is no more than -4.2.

As for C14G C75U, the “polymerase ribozyme fitness (log ratio)” value was -2.58.

Take A37U G42C: the “polymerase ribozyme fitness (log ratio)” value was -3.9.

For the variant C85G C132G, the “polymerase ribozyme fitness (log ratio)” value was no more than -4.2.

Turning to C43U G46A U90C C95U A106U, the “polymerase ribozyme fitness (log ratio)” value is no more than -4.2.

With C38A C51U C95A C131A, the “polymerase ribozyme fitness (log ratio)” value is -3.34.

For A113G A147C, the “polymerase ribozyme fitness (log ratio)” value is -2.73.

As for U4G A41C A137C, the “polymerase ribozyme fitness (log ratio)” value was no more than -4.2.

For C5A C35A U55A A91G G100U G126A A147G, the “polymerase ribozyme fitness (log ratio)” value was no more than -4.2.

In the case of G50A C95A U111A U135A, the “polymerase ribozyme fitness (log ratio)” value was no more than -4.2.

As for A21G A22U G67A G86C C96U G117A, the “polymerase ribozyme fitness (log ratio)” value was no more than -4.2.

Source of the values: the RNAGym collection of RNA variant scans (doi:10.1073/pnas.2313332121).
